Article PMC9482650, “Quantitative fragmentomics allow affinity mapping of interactomes” (Nature Communications, 2022)

target: MAGI2_3, Q86UL8; test: holdup assay; design: key: below the threshold = too weak to quantify, mostly under pKd 3.1 to 4; details: plain residues with an end cap or a label only (N-terminal biotin on a linker: ado-ado)
Sequence (Q86UL8 600-682): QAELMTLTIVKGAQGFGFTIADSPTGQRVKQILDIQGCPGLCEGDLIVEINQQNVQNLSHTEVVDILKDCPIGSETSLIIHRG

Binder	pKd
KKAPTNEFYA [SDC4, P31431]	below the threshold

target: T1, HTRA3, P83110; test: holdup assay; design: key: below the threshold = too weak to quantify, mostly under pKd 3.1 to 4; details: plain residues with an end cap or a label only (N-terminal biotin on a linker: ado-ado)
T1 sequence (P83110 354-453, limits assumed, looked up): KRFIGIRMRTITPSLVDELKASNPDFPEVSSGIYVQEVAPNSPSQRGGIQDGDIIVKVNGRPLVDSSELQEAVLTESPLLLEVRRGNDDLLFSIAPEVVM

Binder	pKd
KKAPTNEFYA [SDC4, P31431]	4.38

target: GOPC, Q9HD26; test: holdup assay; design: key: below the threshold = too weak to quantify, mostly under pKd 3.1 to 4; details: plain residues with an end cap or a label only (N-terminal biotin on a linker: ado-ado)

Binder	pKd
KKAPTNEFYA [SDC4, P31431]	below the threshold

target: GORASP1, Q9BQQ3; test: holdup assay; design: key: below the threshold = too weak to quantify, mostly under pKd 3.1 to 4; details: plain residues with an end cap or a label only (N-terminal biotin on a linker: ado-ado)
Sequence (Q9BQQ3 1-208): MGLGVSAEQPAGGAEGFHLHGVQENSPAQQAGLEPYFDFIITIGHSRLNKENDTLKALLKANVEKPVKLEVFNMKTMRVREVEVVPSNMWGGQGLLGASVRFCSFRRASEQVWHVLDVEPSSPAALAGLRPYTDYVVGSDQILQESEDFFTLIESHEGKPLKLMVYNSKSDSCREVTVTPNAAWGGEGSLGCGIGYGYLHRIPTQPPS

Binder	pKd
KKAPTNEFYA [SDC4, P31431]	below the threshold

target: Inadl_4, Q8NI35; test: holdup assay; design: key: below the threshold = too weak to quantify, mostly under pKd 3.1 to 4; details: plain residues with an end cap or a label only (N-terminal biotin on a linker: ado-ado)
Sequence (Q8NI35 547-651): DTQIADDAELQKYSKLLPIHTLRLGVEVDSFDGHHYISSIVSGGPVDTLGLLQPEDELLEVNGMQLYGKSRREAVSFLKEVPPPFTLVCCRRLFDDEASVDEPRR

Binder	pKd
KKAPTNEFYA [SDC4, P31431]	below the threshold

target: FRMPD2_3, Q68DX3; test: holdup assay; design: key: below the threshold = too weak to quantify, mostly under pKd 3.1 to 4; details: plain residues with an end cap or a label only (N-terminal biotin on a linker: ado-ado)
Sequence (Q68DX3 1073-1166): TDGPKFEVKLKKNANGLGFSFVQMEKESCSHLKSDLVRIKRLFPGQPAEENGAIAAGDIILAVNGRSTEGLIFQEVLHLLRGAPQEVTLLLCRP

Binder	pKd
KKAPTNEFYA [SDC4, P31431]	below the threshold

target: Inadl_1, Q8NI35; test: holdup assay; design: key: below the threshold = too weak to quantify, mostly under pKd 3.1 to 4; details: plain residues with an end cap or a label only (N-terminal biotin on a linker: ado-ado)
Sequence (Q8NI35 113-229): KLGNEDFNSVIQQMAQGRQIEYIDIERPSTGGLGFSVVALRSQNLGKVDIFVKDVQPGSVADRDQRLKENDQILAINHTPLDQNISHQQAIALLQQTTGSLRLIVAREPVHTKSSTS

Binder	pKd
KKAPTNEFYA [SDC4, P31431]	below the threshold

target: FRMPD2_1, Q68DX3; test: holdup assay; design: key: below the threshold = too weak to quantify, mostly under pKd 3.1 to 4; details: plain residues with an end cap or a label only (N-terminal biotin on a linker: ado-ado)
Sequence (Q68DX3 770-861): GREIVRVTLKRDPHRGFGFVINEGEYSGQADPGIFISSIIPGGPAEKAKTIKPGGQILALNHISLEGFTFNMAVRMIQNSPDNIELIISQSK

Binder	pKd
KKAPTNEFYA [SDC4, P31431]	3.51

target: T2, FRMPD1, Q5SYB0; test: holdup assay; design: key: below the threshold = too weak to quantify, mostly under pKd 3.1 to 4; details: plain residues with an end cap or a label only (N-terminal biotin on a linker: ado-ado)
T2 sequence (Q5SYB0 52-145, limits assumed, looked up): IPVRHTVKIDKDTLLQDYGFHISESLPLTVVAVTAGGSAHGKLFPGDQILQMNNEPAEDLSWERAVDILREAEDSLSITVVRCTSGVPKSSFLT

Binder	pKd
KKAPTNEFYA [SDC4, P31431]	below the threshold

target: MAGI3_2, Q5TCQ9; test: holdup assay; design: key: below the threshold = too weak to quantify, mostly under pKd 3.1 to 4; details: plain residues with an end cap or a label only (N-terminal biotin on a linker: ado-ado)
Sequence (Q5TCQ9 398-503): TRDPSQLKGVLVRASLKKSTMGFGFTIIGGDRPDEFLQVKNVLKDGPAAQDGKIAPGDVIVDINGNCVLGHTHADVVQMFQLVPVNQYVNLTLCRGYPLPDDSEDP

Binder	pKd
KKAPTNEFYA [SDC4, P31431]	below the threshold

target: GIPC2, Q8TF65; test: holdup assay; design: key: below the threshold = too weak to quantify, mostly under pKd 3.1 to 4; details: plain residues with an end cap or a label only (N-terminal biotin on a linker: ado-ado)
Sequence (Q8TF65 112-203): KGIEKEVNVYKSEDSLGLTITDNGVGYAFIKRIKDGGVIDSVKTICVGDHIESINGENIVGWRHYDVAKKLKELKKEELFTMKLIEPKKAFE

Binder	pKd
KKAPTNEFYA [SDC4, P31431]	below the threshold

target: T3, NHERF3_3, Q5T2W1; test: holdup assay; design: key: below the threshold = too weak to quantify, mostly under pKd 3.1 to 4; details: plain residues with an end cap or a label only (N-terminal biotin on a linker: ado-ado)
T3 sequence (Q5T2W1 238-333, limits assumed, looked up): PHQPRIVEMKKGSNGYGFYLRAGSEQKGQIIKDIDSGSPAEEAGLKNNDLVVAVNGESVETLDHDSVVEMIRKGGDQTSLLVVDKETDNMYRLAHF

Binder	pKd
KKAPTNEFYA [SDC4, P31431]	below the threshold

target: T4, LIN7B, Q9HAP6; test: holdup assay; design: key: below the threshold = too weak to quantify, mostly under pKd 3.1 to 4; details: plain residues with an end cap or a label only (N-terminal biotin on a linker: ado-ado)
T4 sequence (Q9HAP6 88-185, limits assumed, looked up): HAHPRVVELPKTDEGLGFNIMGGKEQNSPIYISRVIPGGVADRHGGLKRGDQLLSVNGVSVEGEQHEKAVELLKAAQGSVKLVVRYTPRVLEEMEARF

Binder	pKd
KKAPTNEFYA [SDC4, P31431]	3.74

target: T5, RHPN1, Q8TCX5; test: holdup assay; design: key: below the threshold = too weak to quantify, mostly under pKd 3.1 to 4; details: plain residues with an end cap or a label only (N-terminal biotin on a linker: ado-ado)
T5 sequence (Q8TCX5 508-602, limits assumed, looked up): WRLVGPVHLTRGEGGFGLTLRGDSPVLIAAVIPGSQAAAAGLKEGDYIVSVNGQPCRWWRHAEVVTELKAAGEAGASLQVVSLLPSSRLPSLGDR

Binder	pKd
KKAPTNEFYA [SDC4, P31431]	below the threshold

target: Inadl_8, Q8NI35; test: holdup assay; design: key: below the threshold = too weak to quantify, mostly under pKd 3.1 to 4; details: plain residues with an end cap or a label only (N-terminal biotin on a linker: ado-ado)
Sequence (Q8NI35 1425-1530): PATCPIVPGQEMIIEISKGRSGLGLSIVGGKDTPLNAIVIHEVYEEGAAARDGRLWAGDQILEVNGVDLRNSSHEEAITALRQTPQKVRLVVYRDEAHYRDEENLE

Binder	pKd
KKAPTNEFYA [SDC4, P31431]	below the threshold

target: LNX1_3, Q8TBB1; test: holdup assay; design: key: below the threshold = too weak to quantify, mostly under pKd 3.1 to 4; details: plain residues with an end cap or a label only (N-terminal biotin on a linker: ado-ado)
Sequence (Q8TBB1 500-596): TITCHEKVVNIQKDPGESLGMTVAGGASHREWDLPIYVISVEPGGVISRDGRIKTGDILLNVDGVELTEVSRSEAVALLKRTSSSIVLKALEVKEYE

Binder	pKd
KKAPTNEFYA [SDC4, P31431]	below the threshold

target: NHERF4_4, Q86UT5; test: holdup assay; design: key: below the threshold = too weak to quantify, mostly under pKd 3.1 to 4; details: plain residues with an end cap or a label only (N-terminal biotin on a linker: ado-ado)
Sequence (Q86UT5 464-550): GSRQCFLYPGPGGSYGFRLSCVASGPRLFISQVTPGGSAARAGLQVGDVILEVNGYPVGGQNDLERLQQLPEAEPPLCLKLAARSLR

Binder	pKd
KKAPTNEFYA [SDC4, P31431]	below the threshold

target: DLG4_2, P78352; test: holdup assay; design: key: below the threshold = too weak to quantify, mostly under pKd 3.1 to 4; details: plain residues with an end cap or a label only (N-terminal biotin on a linker: ado-ado)
Sequence (P78352 155-259): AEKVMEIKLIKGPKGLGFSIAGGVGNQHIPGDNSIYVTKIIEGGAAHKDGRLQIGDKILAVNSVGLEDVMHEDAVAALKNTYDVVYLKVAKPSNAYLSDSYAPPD

Binder	pKd
KKAPTNEFYA [SDC4, P31431]	below the threshold

target: T6, SNTA1, Q13424; test: holdup assay; design: key: below the threshold = too weak to quantify, mostly under pKd 3.1 to 4; details: plain residues with an end cap or a label only (N-terminal biotin on a linker: ado-ado)
T6 sequence (Q13424 82-180, limits assumed, looked up): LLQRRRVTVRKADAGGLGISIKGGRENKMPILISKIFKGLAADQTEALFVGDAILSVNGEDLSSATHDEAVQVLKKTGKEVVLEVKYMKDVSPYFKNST

Binder	pKd
KKAPTNEFYA [SDC4, P31431]	below the threshold

target: T7, DLG3_2, Q92796; test: holdup assay; design: key: below the threshold = too weak to quantify, mostly under pKd 3.1 to 4; details: plain residues with an end cap or a label only (N-terminal biotin on a linker: ado-ado)
T7 sequence (Q92796 221-321, limits assumed, looked up): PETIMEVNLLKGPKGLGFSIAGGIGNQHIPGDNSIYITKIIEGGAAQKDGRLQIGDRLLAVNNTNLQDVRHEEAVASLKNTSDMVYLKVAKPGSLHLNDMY

Binder	pKd
KKAPTNEFYA [SDC4, P31431]	4.14

target: Inadl_10, Q8NI35; test: holdup assay; design: key: below the threshold = too weak to quantify, mostly under pKd 3.1 to 4; details: plain residues with an end cap or a label only (N-terminal biotin on a linker: ado-ado)
Sequence (Q8NI35 1673-1763): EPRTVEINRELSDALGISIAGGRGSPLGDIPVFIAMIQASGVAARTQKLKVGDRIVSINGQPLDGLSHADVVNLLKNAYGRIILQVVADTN

Binder	pKd
KKAPTNEFYA [SDC4, P31431]	below the threshold

target: MAST2, Q6P0Q8; test: holdup assay; design: key: below the threshold = too weak to quantify, mostly under pKd 3.1 to 4; details: plain residues with an end cap or a label only (N-terminal biotin on a linker: ado-ado)
Sequence (Q6P0Q8 1099-1202): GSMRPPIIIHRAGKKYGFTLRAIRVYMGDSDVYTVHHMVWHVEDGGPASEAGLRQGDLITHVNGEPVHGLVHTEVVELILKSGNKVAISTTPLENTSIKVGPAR

Binder	pKd
KKAPTNEFYA [SDC4, P31431]	below the threshold

target: T8, ARHGEF11, O15085; test: holdup assay; design: key: below the threshold = too weak to quantify, mostly under pKd 3.1 to 4; details: plain residues with an end cap or a label only (N-terminal biotin on a linker: ado-ado)
T8 sequence (O15085 42-136, limits assumed, looked up): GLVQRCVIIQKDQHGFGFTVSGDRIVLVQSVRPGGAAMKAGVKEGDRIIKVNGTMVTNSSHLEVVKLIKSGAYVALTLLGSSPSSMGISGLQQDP

Binder	pKd
KKAPTNEFYA [SDC4, P31431]	below the threshold

target: LNX1_2, Q8TBB1; test: holdup assay; design: key: below the threshold = too weak to quantify, mostly under pKd 3.1 to 4; details: plain residues with an end cap or a label only (N-terminal biotin on a linker: ado-ado)
Sequence (Q8TBB1 371-470): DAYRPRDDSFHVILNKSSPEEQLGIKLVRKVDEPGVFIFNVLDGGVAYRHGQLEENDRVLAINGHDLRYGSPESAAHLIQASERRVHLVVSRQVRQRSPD

Binder	pKd
KKAPTNEFYA [SDC4, P31431]	below the threshold

target: MAGI1_2, Q96QZ7; test: holdup assay; design: key: below the threshold = too weak to quantify, mostly under pKd 3.1 to 4; details: plain residues with an end cap or a label only (N-terminal biotin on a linker: ado-ado)
Sequence (Q96QZ7 456-580): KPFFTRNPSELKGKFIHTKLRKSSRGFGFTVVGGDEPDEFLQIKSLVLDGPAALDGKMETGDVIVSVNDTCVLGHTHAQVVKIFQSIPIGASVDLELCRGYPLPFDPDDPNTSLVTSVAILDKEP

Binder	pKd
KKAPTNEFYA [SDC4, P31431]	below the threshold

target: T9, APBA1_1, Q02410; test: holdup assay; design: key: below the threshold = too weak to quantify, mostly under pKd 3.1 to 4; details: plain residues with an end cap or a label only (N-terminal biotin on a linker: ado-ado)
T9 sequence (Q02410 651-752, limits assumed, looked up): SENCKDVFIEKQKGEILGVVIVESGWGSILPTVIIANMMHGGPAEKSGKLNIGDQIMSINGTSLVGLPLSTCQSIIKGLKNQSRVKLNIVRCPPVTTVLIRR

Binder	pKd
KKAPTNEFYA [SDC4, P31431]	below the threshold

target: Inadl_6, Q8NI35; test: holdup assay; design: key: below the threshold = too weak to quantify, mostly under pKd 3.1 to 4; details: plain residues with an end cap or a label only (N-terminal biotin on a linker: ado-ado)
Sequence (Q8NI35 1058-1167): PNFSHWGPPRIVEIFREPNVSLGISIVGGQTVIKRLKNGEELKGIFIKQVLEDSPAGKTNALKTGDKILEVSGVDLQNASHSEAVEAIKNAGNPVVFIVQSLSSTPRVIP

Binder	pKd
KKAPTNEFYA [SDC4, P31431]	below the threshold

target: PARD3_3, Q8TEW0; test: holdup assay; design: key: below the threshold = too weak to quantify, mostly under pKd 3.1 to 4; details: plain residues with an end cap or a label only (N-terminal biotin on a linker: ado-ado)
Sequence (Q8TEW0 582-685): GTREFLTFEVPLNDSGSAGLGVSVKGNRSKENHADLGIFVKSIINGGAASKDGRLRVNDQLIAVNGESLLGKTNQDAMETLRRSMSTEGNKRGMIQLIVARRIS

Binder	pKd
KKAPTNEFYA [SDC4, P31431]	below the threshold
